According to US20230121197A1, “ANTIBODIES SPECIFICALLY BINDING THE CARBOXYMETHYLATED CATALYTIC SUBUNIT OF PROTEIN PHOSPHATASE 2A” (Medizinische Universität Wien, priority 2020, published 2023):

Tests used:
[1] = molecular target: T1, mouse HA PP6c, carboxymethylated (immunoprecipitated from NIH3T3 cells) (mouse, UniProt Q9CQR6 1-305, C-terminal leucine α-carboxyl methyl ester (cellular methylation)); experiment: Western blot of anti-HA immunoprecipitates from NIH3T3 cells, with quantification, N=3
T1 construct: mature; also called methylated PP6c; not shown: HA tag
T1 sequence (looked up): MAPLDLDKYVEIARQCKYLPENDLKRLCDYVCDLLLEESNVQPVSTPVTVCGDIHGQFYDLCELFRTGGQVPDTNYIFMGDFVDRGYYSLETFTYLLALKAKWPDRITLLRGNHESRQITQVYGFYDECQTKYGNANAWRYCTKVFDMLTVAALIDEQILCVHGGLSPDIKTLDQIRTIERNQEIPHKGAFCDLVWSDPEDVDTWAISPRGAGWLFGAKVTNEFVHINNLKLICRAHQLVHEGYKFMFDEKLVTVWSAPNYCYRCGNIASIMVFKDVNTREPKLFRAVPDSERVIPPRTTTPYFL
From the text: (A) Alignment of the C-termini of mammalian catalytic PP2Ac, PP4c and PP6c subunits (B) Immunoblotting of anti HA-immunoprecipitates of NIH3T3 cells either infected with retroviral supernatants of pBabe hygro (control) or pBabe hygro HA-PP2Ac (label “HA-PP2A), pBabe hygro HA-PP4c (label “HA-PP4”) or pBabe hygro HA-PP6c (label HA-PP6) using indicated antibodies. The label “7C10” refers to the 7C10-C5 monoclonal antibody. To equilibrate HA levels, 2 times more of the HA-PP4c and 3 times more of the HA-PP6c immunoprecipitates was loaded than HA-PP2Ac. The panel originates from 3 different blotting membranes for each antibody indicated in the panel. The blots are representative of N=3 independent immunoprecipitation experiments. The 2A10 and 7C10-C5 signals were quantified from N=3 independent experiments, normalized to the HA levels and the HA-PP2Ac signals were set to 1. Average and standard deviation (error bars) are shown. Statistical significance was assessed using ANOVA followed by Tukey's HSD as a post-hoc test. […]

[2] = molecular target: T2, PP2Ac C-terminal peptide meL309, ac-HVTRRTPDYFL-CH3 (α-carboxymethylated) (human, SMILES …); experiment: SPR (Biacore T200), antibody captured by anti-mouse IgG on CM5 chip, peptide 5-160 nM as analyte, steady state analysis, 25 °C
T2 construct: also called Y307-meL309; mePP2Ac
T2 peptide: Ac-HVTRRTPDYFL-OMe
Protocol: The differential affinity of anti-carboxymethylated PP2Ac antibodies, 7C10-C5 and 2A10, to carboxymethylated PP2A catalytic subunit versus noncarboxymethylated PP2A catalytic subunit was determined by surface plasmon resonance (SPR) on a Biacore T200 (GE Healthcare) at the Core Facility Biomolecular & Cellular Analysis (University of Natural Resources and Life Sciences Vienna BOKU). The affinity of 7C10-C5 for carboxymethylated and noncarboxymethylated catalytic subunit of PP4 (PP4c), a PP2A-related phosphatase, was also determined.
Series S Sensor Chip CM5 (GE Healthcare, 10296958) Flow cells (e.g. Flow cells 3 and 4 for the data shown in Table 5 and FIG. 32) were coated with 30 μg/mL anti-mouse IgG antibody (in immobilization buffer) using the mouse antibody capture kit (GE Healthcare, BR-1008-38, Lot 10294578) via amine coupling according to the manufacturer's protocol (i.e. https://www.cytivalifesciences. com/en/us/shop/protein-analysis/spr-lab el-free-analysis/capture-reagents/mouse-antibody-capture-kit-p-05986). The immobilisation levels obtained were 11620.2 RU (Flow cell 1), 10836.5 RU (Flow cell 2), 11605.9 RU (Flow cell 3) and 11333.9 RU (Flow cell 4), and thus were within the specifications. […]
SPR experiments were performed with the BiacoreT200 instrument (Cytiva). […] The sensorgrams obtained were analyzed with BiacoreT200 Evaluation Software (version 3.1).

B1: 7C10-C5 monoclonal antibody (antibody, V domains shown)
VH: DVQLQESGPGLVKPSQSLSLTCSVTGYSITSGYYWNWIRQFPGNKLEWMGYISYDGSNNYNPSLKNRISITRDTSKNQFFLKLNSVTTEDTATYYCAGRFAYWGQGTLVTVSA
VL: DVLMTQTPLSLPVSLGDQASISCRSSQSIVHSNGNTYLEWYLQKPGQSPKLLIYKVSNRFSGVPDRFSGSGSGTDFTLKINRVEAEDLGVYYCFQGSHVPWTFGGGTKLEIK
notes: Used as hybridoma culture supernatant (ELISA, Western blot, IHC) or at 50 µg/mL (SPR); also called 7C10 X63; clone 7C10-C5
[1]
  binding result: no binding
[2]
  Kd: 11 nM
